Laboratory results published in patent publication US20240228586.

Target: M-L2-IL12 (masked mouse IL-12 whose linker contains 3 repeats of VPLSLYSG), Q60837
Sequence (Q60837 whole entry, looked up): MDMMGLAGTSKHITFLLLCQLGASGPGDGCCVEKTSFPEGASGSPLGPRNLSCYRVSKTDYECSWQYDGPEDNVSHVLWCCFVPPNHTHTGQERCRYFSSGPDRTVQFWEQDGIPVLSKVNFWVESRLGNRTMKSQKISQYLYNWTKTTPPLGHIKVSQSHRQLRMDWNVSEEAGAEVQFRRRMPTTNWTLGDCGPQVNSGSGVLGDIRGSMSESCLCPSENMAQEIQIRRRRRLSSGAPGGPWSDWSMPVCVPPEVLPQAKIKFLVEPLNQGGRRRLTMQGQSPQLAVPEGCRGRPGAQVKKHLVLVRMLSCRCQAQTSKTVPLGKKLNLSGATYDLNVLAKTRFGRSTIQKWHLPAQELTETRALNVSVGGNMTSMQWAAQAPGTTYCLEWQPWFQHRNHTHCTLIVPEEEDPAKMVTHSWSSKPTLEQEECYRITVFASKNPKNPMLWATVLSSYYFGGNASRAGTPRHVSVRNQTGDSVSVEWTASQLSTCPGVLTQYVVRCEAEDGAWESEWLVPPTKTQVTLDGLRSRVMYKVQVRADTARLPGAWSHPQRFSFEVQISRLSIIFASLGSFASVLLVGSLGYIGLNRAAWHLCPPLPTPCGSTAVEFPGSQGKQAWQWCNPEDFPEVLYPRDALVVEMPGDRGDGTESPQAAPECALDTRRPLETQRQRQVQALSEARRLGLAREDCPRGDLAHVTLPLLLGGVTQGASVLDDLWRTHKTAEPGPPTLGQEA

B1: recombinant mouse matrix metalloproteinase-9 (protein)
chain: FQTFKGLKWDHHNITYWIQNYSEDLPRDMIDDAFARAFAVWGEVAPLTFTRVYGPEADIVIQFGVAEHGDGYPFDGKDGLLAHAFPPGAGVQGDAHFDDDELWSLGKGVVIPTYYGNSNGAPCHFPFTFEGRSYSACTTDGRNDGTPWCSTTADYDKDGKFGFCPSERLYTEHGNGEGKPCVFPFIFEGRSYSACTTKGRSDGYRWCATTANYDQDKLYGFCPTRVDATVVGGNSAGELCVFPFVFLGKQYSSCTSDGRRDGRLWCATTSNFDTDKKWGFCPDQGYSLFLVAAHEFGHALGLDHSSVPEALMYPLYSYLEGFPLNKDDIDGIQYLYGRGSKPDPRPPATTTTEPQPTAPPTMCPTIPPTAYPTVGPTVGPTGAPSPGPTSSPSPGPTGAPSPGPTAPPTAGSSEASTESLSPADNPCNVDVFDAIAEIQGALHFFKDGWYWKFLNHRGSPLQGPFLTARTWPALPATLDSAFEDPQTKRVFFFSGRQMWVYTGKTVLGPRSLDKLGLGPEVTHVSGLLPRRLGKALLFSKGRVWRFDLKSQKVDPQSVIRVDKEFSGVPWNSHDIFQYQDKAYFCHGKFFWRVSFQNEVNKVDHEVNQVDDVGYVTYDLLQCP
- in vitro cleavage, 30 min at 37° C., SDS-PAGE: Decrease of molecular weight from ˜105 kDa to ˜60 kDa indicates proteolytic cleavage of IL12Rβ1-VP-IL12 and IL12Rβ1-LS-IL12
